Patent publication US20160068860A1, “TRANSGENIC PLANTS” (CONSEJO SUPERIOR DE INVESTIGACIONES CIENTIFICAS (CSIC), priority 2013, published 2016)
Where a chain is given by its changes, count along the chain named. Names and notes keep the numbering of the source.

B1: PYL4H82R V97A (AtPYL H82 and V97A) (receptor)
chain: MLAVHRPSSAVSDGDSVQIPMMIASFQKRFPSLSRDSTAARFHTHEVGPNQCCSAVIQEISAPISTVWSVVRRFDNPQAYKRFLKSCSVIGGDGDNAGSLRQVHVVSGLPAASSTERLDILDDERHVISFSVVGGDHRLSNYRSVTTLHPSPISGTVVVESYVVDVPPGNTKEETCDFVDVIVRCNLQSLAKIAENTAAESKKKMSL
notes: also called PYL4H82R (found combined with V97A)
B2: PYL4A194T: AtPYL4 ABA receptor mutant polypeptide with A194T substitution (SEQ ID NO. 60; nucleic acid SEQ ID NO: 55); also over-expressed in plants (protein, listed as Arabidopsis thaliana)
chain: B1 chain with R82H, A97V, A194T

Assays:
[1] = tested on: Arabidopsis thaliana plants; assay: Seedling establishment and early seedling growth of OE lines on ABA; type: in vivo; conditions: for ABA-mediated inhibition of seedling establishment: 0.25 or 0.5 μM ABA; for ABA-mediated inhibition of shoot growth (early seedling growth): 0.25-0.5 μM ABA
Description: PYL4 or PYL4 mutants were cloned into pCR8/GW/TOPO entry vector (Invitrogen) and recombined by LR reaction into the gateway compatible ALLIGATOR2 vector (Bensmihen et al., 2004). This construct drives expression of PYL4 under control of the 35S CaMV promoter and introduces a triple HA epitope at the N-terminus of the protein. Selection of transgenic lines is based on the visualization of GFP in seeds, whose expression is driven by the specific seed promoter At2S3. The ALLIGATOR2-35S:3HA-PYL4 or mutant constructs were transferred to Agrobacterium tumefaciens C58C1 (pGV2260) (Deblaere et al., 1985) by electroporation and used to transform Columbia wild type plants by the floral dip method. T1 transgenic seeds were selected based on GFP visualization and sowed in soil to obtain the T2 generation. At least three independent transgenic lines were generated for each construct. Homozygous T3 progeny was used for further studies and expression of HA-tagged protein in 21-d-old seedlings was verified by immunoblot analysis using anti-HA-peroxidase (Roche).
After surface sterilization of the seeds, stratification was conducted in the dark at 4° C. for 3 d. Approximately 100 seeds of each genotype were sowed on MS plates supplemented with different ABA concentrations per experiment. To score seed germination, radical emergence was analyzed at 72 h after sowing. Seedling establishment was scored as the percentage of seeds that developed green expanded cotyledons and the first pair of true leaves at 7-d.

[2] = tested on: Arabidopsis thaliana plants; assay: Stomatal aperture by whole leaf imaging; type: in vivo; conditions: OE plants; steady-state conditions
Experimental: (§1) 2-3 weeks-old seedlings grown in MS plates were used for water-loss assays. Four seedlings per genotype with similar growth, three independent experiments, were submitted to the drying atmosphere of a flow laminar hood. Kinetic analysis of waterloss was performed and represented as the percentage of initial fresh weight loss at each scored time point. Stomatal aperture measurements were done in leaves of 5-week-old plants grown under greenhouse conditions using whole leaf imaging (Chitrakar and Melotto, 2010). Staining of whole leaves with propidium iodide was conducted and the aperture of 30-40 stomata (ratio width/length, two independent experiments) was measured using a Leica TCS-SL confocal microscope.

[3] = tested on: Arabidopsis thaliana plants; assay: Water-loss assays of OE lines; type: in vivo; conditions: for water loss under drought stress: greenhouse, leaves detached after 11-d without irrigation
Experimental: as §1
(§2) Plants grown under greenhouse conditions (10 individuals per experiment, three independent experiments) were grown under normal watering conditions for 15 days and then subjected to drought stress by stopping irrigation during 20 days. Next, watering was resumed and survival rate was calculated after 3 days by counting the percentage of plants that had more than four green leaves. Photographs were taken at the start of the experiment (day 0), after 16 and 19 days of drought, and 3 days after rewatering. Shoot-growth and water-loss were measured as follows. Quantification of shoot-growth was performed at 2, 5, 7 and 9 d after stopping irrigation (day 0) by measuring the maximum rosette radius of the plants. Water-loss measurements were done in two leaves from each plant that were detached 11 d after the start of the experiment, next weighted, incubated in de-mineralized water for 3 h and weighed again. The difference in weight was considered as water loss and related to the initial fresh weight (μl H2O/g FW).

[4] = tested on: Arabidopsis thaliana plants; assay: Drought stress under greenhouse conditions; type: in vivo; conditions: for survival after drought stress: OE lines, watering resumed at 19-d, scored at 23-d
Experimental: as §2

PP2CA = assay: Yeast two hybrid (Y2H) growth assay with PP2CA; type: cell-based, Arabidopsis; conditions: absence of ABA; growth on medium lacking His and Ade
Experimental: We conducted error-prone PCR mutagenesis by amplification of the PYL4 open reading frame using the following primers: FPYL4Ncol, 5″-GCAGCAGCCATGGTTGCCG TTCACCGTCCTTCT and RPYL4EcoRIstop: […] TCT TCTTCTT, and the following conditions: 2 mM dGTP, dCTP and dTTP, 0.5 mM dATP, 12 mM MgCl2 and Taq polymerase. The PCR product was Ncol-EcoRI doubly digested, cloned into the pGBKT7 vector and DH10B cells were transformed by electroporation. Thus, we generated an allele library in E. coli of approximately 10,000 PYL4 mutant clones. […] The library was shuttled to yeast AH109 by co-transformation with pGAD7-PP2CA. Yeast transformants were pooled and clones able to grow in the absence of exogenous ABA in medium lacking histidine and adenine were selected. Yeast plasmids were extracted, sequenced and retransformed in yeast cells to recapitulate the phenotype. Protocols for yeast two hybrid assays were similar to those described previously (Saez et al., 2008).

[5] = tested on: Barley plants (cv. Golden Promise); type: in vivo, Hordeum vulgare; conditions: for vegetative growth under non-stress conditions: in vivo; for drought tolerance compared to non-transformed Golden promise wt plants / fresh weight/leaf after drought / survival and vegetative growth after drought and rewatering / weight/plant after drought and rewatering: transgenic barley; for drought tolerance compared to non-transformed Golden promise wt plants: 12-d period of drought; for fresh weight/leaf after drought / survival and vegetative growth after drought and rewatering / weight/plant after drought and rewatering: compared to non-transformed plants
Description: Transgenic barley (cv. Golden Promise) expressing either Arabidopsis PYL4^A194T or PYL4^H82R V97A open reading frame driven by the Ubiquitin promoter from the pBract214 vector was generated via Agrobacterium-mediated transformation (Bartlett et al. 2008).
The nucleotide sequence encoding either PYL4^A194T or PYL4^H82R V97A open reading frame was recombined by LR reaction from pCR8/GW/TOPO entry vector into the Gateway compatible pBract214 destination vector. The sequence introduced in barley is the Arabidopsis open reading frame carrying the indicated mutations. Also, the second codon (of the sequence as shown in SEQ ID NO; 2) was modified to GTT to get a Ncol site to facilitate cloning).
Immature embryos were inoculated with Agrobacterium strain AGL1 containing the over-expression vector pBract214 into which the genes of interest had been cloned. pBract214 also contains the hygromycin resistance gene to allow selection of transgenic tissues and plants. Following co-cultivation for 3 days, immature embryos were transferred to selective callus induction medium containing hygromycin to allow the selection of transformed tissue and timentin to remove Agrobacterium. After a total of 6 weeks callus induction, callus were moved to a transition medium in low light and then 2 weeks later to regeneration medium under full light. Regenerated plants were transferred to rooting tubes when shoots reached 2-3 cm in length. Plants with strong roots in hygromycin containing medium were then established in soil and grown to maturity under controlled environment conditions in order to obtain T1 seed progeny.
Barley plants (cv. Golden Promise) were routinely grown under greenhouse conditions (40-50% relative humidity, 23-24° C.) in pots containing a 1:3 vermiculite-soil mixture. Pots were grouped in trays where water was maintained approximately 0.2-1 cm above the bottom of the tray. For drought (D) stress experiments, four-week-old plants were watered with tap water for 12-d (minus D, water maintained 0.2-1 cm above the bottom of the tray) or were submitted to drought for 12-d (plus D, water withdrawal). One flag leaf per plant (10 individual plants for each genetic background, minus and plus D treatment) was weighed in order to obtain its fresh weight and dried for 16 h at 70° C. and weighed again to obtain its dry weight. After the 12 day drought period, plants that had been submitted to drought were re-watered (RW, water 1 cm above the bottom of the tray for 2-d, then water withdrawal) and weight per plant (destructive measurement to obtain above ground biomass) was obtained after 5-d (plus D, plus RW). The results obtained are described in FIGS. 9, 10 and 11.

Molecule	ABA-mediated inhibition of seedling establishment [1]	stomatal aperture [2]	water loss under drought stress [3]	survival after drought stress [4]	interaction with PP2CA in Y2H assay (PP2CA)	ABA-mediated inhibition of shoot growth (early seedling growth) [1]	vegetative growth under non-stress conditions [5]	drought tolerance compared to non-transformed Golden promise wt plants [5]	fresh weight/leaf after drought [5]	survival and vegetative growth after drought and rewatering [5]	weight/plant after drought and rewatering [5]	water-loss kinetics ([3]; 15-d-old seedlings, drying atmosphere of a laminar flow hood)	plant growth (rosette radius) during drought ([4]; OE plants, subsequent 5-d after irrigation stopped)
PYL4: AtPYL4 wild type ABA receptor polypeptide (SEQ ID NO:3, At2g38310) [reference compound]	enhanced ABA-mediated inhibition of seedling establishment compared to non-transformed plants	more closed than those of non-transformed Col plants	reduced water loss compared to non-transformed plants	around 30%	ABA-dependent manner								
B1	higher sensitivity to ABA-mediated inhibition of seedling establishment than PYL4 OE plants				ABA-independent interaction with PP2CA	higher sensitivity to ABA-mediated inhibition of shoot growth than PYL4 OE plants	did not impair vegetative growth	enhanced drought tolerance	higher fresh weight/leaf	enhanced survival and vegetative growth	higher weight/plant		
B2	higher sensitivity to ABA-mediated inhibition of seedling establishment than PYL4 OE plants	more closed than those of non-transformed Col plants	reduced water loss compared to non-transformed Col and PYL4 OE plants	60-70%	enhanced the interaction of PYL4 and PP2CA in the absence of ABA	higher sensitivity to ABA-mediated inhibition of shoot growth than PYL4 OE plants	did not impair vegetative growth	enhanced drought tolerance	higher fresh weight/leaf	enhanced survival and vegetative growth	higher weight/plant	lost less water than non-transformed or PYL4 OE lines	plant growth was reduced in non-transformed Col and PYL4 OE plants compared to PYL4A194T OE plants
